In FireProtDB (doi:10.1021/bi9707180):

B1: Guanyl-specific ribonuclease T1, P00651 (parent)
chain: MMYSKLLTLTTLLLPTALALPSLVERACDYTCGSNCYSSSDVSTAQAAGYQLHEDGETVGSNSYPHKYNNYEGFDFSVSSPYYEWPILSSGDVYSGGSPGADRVVFNENNQLAGVITHTGASGNNFVECT

Variants of: B1
Conditions: Aspergillus oryzae (strain ATCC 42149 / RIB 40), 0 °C, Urea, CD, reversible: yes, structure 1RN1, whole UniProt chain shown

| Variant | ddG of mutation (higher = less stable) (pH 2.5, glycine 30 mM) [kcal/mol] | denaturant m value (pH 2.5, glycine 30 mM) [kcal/mol/M] | denaturant midpoint (higher = more stable) (pH 2.5, glycine 30 mM) [M] | ddG of mutation (higher = less stable) (pH 7, MOPS 30 mM) [kcal/mol] | denaturant m value (pH 7, MOPS 30 mM) [kcal/mol/M] | denaturant midpoint (higher = more stable) (pH 7, MOPS 30 mM) [M] |
| --- | --- | --- | --- | --- | --- | --- |
| MMYSKLLTLTTLLLPTALALPSLVERACDYTCGSNCYSSSDVSTAQVAGYQLHEDGETVGSNSYPHKYNNYEGFDFSVSSPYYEWPILSSGDVYSGGSPGADRVVFNENNQLAGVITHTGASGNNFVECT | 0.66 | 1.77 | 2.38 | – | – | – |
| MMYSKLLTLTTLLLPTALALPSLVERACDYTCGSNCYSSSDVSTAQYAGYQLHEDGETVGSNSYPHKYNNYEGFDFSVSSPYYEWPILSSGDVYSGGSPGADRVVFNENNQLAGVITHTGASGNNFVECT | 0.39 | 1.69 | 2.54 | – | – | – |
| MMYSKLLTLTTLLLPTALALPSLVERACDYTCGSNCYSSSDVSTAQIAGYQLHEDGETVGSNSYPHKYNNYEGFDFSVSSPYYEWPILSSGDVYSGGSPGADRVVFNENNQLAGVITHTGASGNNFVECT | 0.44 | 1.57 | 2.51 | – | – | – |
| MMYSKLLTLTTLLLPTALALPSLVERACDYTCGSNCYSSSDVSTAQRAGYQLHEDGETVGSNSYPHKYNNYEGFDFSVSSPYYEWPILSSGDVYSGGSPGADRVVFNENNQLAGVITHTGASGNNFVECT | 0.41 | 1.65 | 2.53 | – | – | – |
| MMYSKLLTLTTLLLPTALALPSLVERACDYTCGSNCYSSSDVSTAQEAGYQLHEDGETVGSNSYPHKYNNYEGFDFSVSSPYYEWPILSSGDVYSGGSPGADRVVFNENNQLAGVITHTGASGNNFVECT | -0.05 | 1.52 | 2.81 | 0.69 | 1.14 | 3.75 |
| MMYSKLLTLTTLLLPTALALPSLVERACDYTCGSNCYSSSDVSTAQGAGYQLHEDGETVGSNSYPHKYNNYEGFDFSVSSPYYEWPILSSGDVYSGGSPGADRVVFNENNQLAGVITHTGASGNNFVECT | 0.9 | 1.71 | 2.23 | – | – | – |
| MMYSKLLTLTTLLLPTALALPSLVERACDYTCGSNCYSSSDVSTAQNAGYQLHEDGETVGSNSYPHKYNNYEGFDFSVSSPYYEWPILSSGDVYSGGSPGADRVVFNENNQLAGVITHTGASGNNFVECT | -0.34 | 1.72 | 2.99 | – | – | – |
| MMYSKLLTLTTLLLPTALALPSLVERACDYTCGSNCYSSSDVSTAQFAGYQLHEDGETVGSNSYPHKYNNYEGFDFSVSSPYYEWPILSSGDVYSGGSPGADRVVFNENNQLAGVITHTGASGNNFVECT | 0.57 | 1.69 | 2.43 | – | – | – |
| MMYSKLLTLTTLLLPTALALPSLVERACDYTCGSNCYSSSDVSTAQKAGYQLHEDGETVGSNSYPHKYNNYEGFDFSVSSPYYEWPILSSGDVYSGGSPGADRVVFNENNQLAGVITHTGASGNNFVECT | 0.51 | 1.7 | 2.47 | – | – | – |
| MMYSKLLTLTTLLLPTALALPSLVERACDYTCGSNCYSSSDVSTAQCAGYQLHEDGETVGSNSYPHKYNNYEGFDFSVSSPYYEWPILSSGDVYSGGSPGADRVVFNENNQLAGVITHTGASGNNFVECT | 0.74 | 1.56 | 2.33 | – | – | – |
| MMYSKLLTLTTLLLPTALALPSLVERACDYTCGSNCYSSSDVSTAQMAGYQLHEDGETVGSNSYPHKYNNYEGFDFSVSSPYYEWPILSSGDVYSGGSPGADRVVFNENNQLAGVITHTGASGNNFVECT | 0.15 | 1.6 | 2.69 | – | – | – |
| MMYSKLLTLTTLLLPTALALPSLVERACDYTCGSNCYSSSDVSTAQLAGYQLHEDGETVGSNSYPHKYNNYEGFDFSVSSPYYEWPILSSGDVYSGGSPGADRVVFNENNQLAGVITHTGASGNNFVECT | 0.13 | 1.64 | 2.7 | – | – | – |
| MMYSKLLTLTTLLLPTALALPSLVERACDYTCGSNCYSSSDVSTAQWAGYQLHEDGETVGSNSYPHKYNNYEGFDFSVSSPYYEWPILSSGDVYSGGSPGADRVVFNENNQLAGVITHTGASGNNFVECT | 0.3 | 1.56 | 2.6 | – | – | – |
| MMYSKLLTLTTLLLPTALALPSLVERACDYTCGSNCYSSSDVSTAQSAGYQLHEDGETVGSNSYPHKYNNYEGFDFSVSSPYYEWPILSSGDVYSGGSPGADRVVFNENNQLAGVITHTGASGNNFVECT | 0.49 | 1.67 | 2.48 | 0.4 | 1.22 | 3.99 |
| MMYSKLLTLTTLLLPTALALPSLVERACDYTCGSNCYSSSDVSTAQHAGYQLHEDGETVGSNSYPHKYNNYEGFDFSVSSPYYEWPILSSGDVYSGGSPGADRVVFNENNQLAGVITHTGASGNNFVECT | 0.56 | 1.79 | 2.44 | 0.17 | 1.27 | 4.18 |
| MMYSKLLTLTTLLLPTALALPSLVERACDYTCGSNCYSSSDVSTAQDAGYQLHEDGETVGSNSYPHKYNNYEGFDFSVSSPYYEWPILSSGDVYSGGSPGADRVVFNENNQLAGVITHTGASGNNFVECT | -0.33 | 1.59 | 2.98 | 0.71 | 1.24 | 3.73 |
| MMYSKLLTLTTLLLPTALALPSLVERACDYTCGSNCYSSSDVSTAQQAGYQLHEDGETVGSNSYPHKYNNYEGFDFSVSSPYYEWPILSSGDVYSGGSPGADRVVFNENNQLAGVITHTGASGNNFVECT | – | – | – | 0.4 | 1.12 | 3.99 |
| MMYSKLLTLTTLLLPTALALPSLVERACDYTCGSNCYSSSDVSTAQTAGYQLHEDGETVGSNSYPHKYNNYEGFDFSVSSPYYEWPILSSGDVYSGGSPGADRVVFNENNQLAGVITHTGASGNNFVECT | 0.57 | 1.6 | 2.43 | – | – | – |
